B1: Ecotropic viral integration site 5 protein homolog (Homo sapiens), O60447 (parent)
chain: MVTNKMTAAFRNPSGKQVATDKVAEKLSSTLSWVKNTVSHTVSQMASQVASPSTSLHTTSSSTTLSTPALSPSSPSQLSPDDLELLAKLEEQNRLLETDSKSLRSVNGSRRNSGSSLVSSSSASSNLSHLEEDSWILWGRIVNEWEDVRKKKEKQVKELVHKGIPHHFRAIVWQLLCSAQSMPIKDQYSELLKMTSPCEKLIRRDIARTYPEHNFFKEKDSLGQEVLFNVMKAYSLVDREVGYCQGSAFIVGLLLMQMPEEEAFCVFVKLMQDYRLRELFKPSMAELGLCMYQFECMIQEHLPELFVHFQSQSFHTSMYASSWFLTIFLTTFPLPIATRIFDIFMSEGLEIVFRVGLALLQMNQAELMQLDMEGMLQHFQKVIPHQFDGVPDKLIQAAYQVKYNSKKMKKLEKEYTTIKTKEMEEQVEIKRLRTENRLLKQRIETLEKHKCSSNYNEDFVLQLEKELVQARLSEAESQCALKEMQDKVLDIEKRNNSLPDENNIARLQEELIAVKLREAEAIMGLKELRQQVKDLEEHWQRHLARTTGRWKDPPKKNAMNELQDELMTIRLREAETQAEIREIKQRMMEMETQNQINSNHLRRAEQEVISLQEKVQYLSAQNKGLLTQLSEAKRKQAEIECKNKEEVMAVRLREADSIAAVAELRQHIAELEIQKEEGKLQGQLNKSDSNQYIGELKDQIAELNHELRCLKGQRGFSGQPPFDGIHIVNHLIGDDESFHSSDEDFIDNSLQETGVGFPLHGKSGSMSLDPAVADGSESETEDSVLETRESNQVVQKERPPRRRESYSTTV
B2: Prostaglandin D2 receptor (Homo sapiens), Q13258 (parent)
chain: MKSPFYRCQNTTSVEKGNSAVMGGVLFSTGLLGNLLALGLLARSGLGWCSRRPLRPLPSVFYMLVCGLTVTDLLGKCLLSPVVLAAYAQNRSLRVLAPALDNSLCQAFAFFMSFFGLSSTLQLLAMALECWLSLGHPFFYRRHITLRLGALVAPVVSAFSLAFCALPFMGFGKFVQYCPGTWCFIQMVHEEGSLSVLGYSVLYSSLMALLVLATVLCNLGAMRNLYAMHRRLQRHPRSCTRDCAEPRADGREASPQPLEELDHLLLLALMTVLFTMCSLPVIYRAYYGAFKDVKEKNRTSEEAEDLRALRFLSVISIVDPWIFIIFRSPVFRIFFHKIFIRPLRYRSRCSNSTNMESSL
B3: Neuroepithelial cell-transforming gene 1 protein (Homo sapiens), Q7Z628 (parent)
chain: MEPELAAQKQPRPRRRSRRASGLSTEGATGPSADTSGSELDGRCSLRRGSSFTFLTPGPNWDFTLKRKRREKDDDVVSLSSLDLKEPSNKRVRPLARVTSLANLISPVRNGAVRRFGQTIQSFTLRGDHRSPASAQKFSSRSTVPTPAKRRSSALWSEMLDITMKESLTTREIRRQEAIYEMSRGEQDLIEDLKLARKAYHDPMLKLSIMSEEELTHIFGDLDSYIPLHEDLLTRIGEATKPDGTVEQIGHILVSWLPRLNAYRGYCSNQLAAKALLDQKKQDPRVQDFLQRCLESPFSRKLDLWSFLDIPRSRLVKYPLLLKEILKHTPKEHPDVQLLEDAILIIQGVLSDINLKKGESECQYYIDKLEYLDEKQRDPRIEASKVLLCHGELRSKSGHKLYIFLFQDILVLTRPVTRNERHSYQVYRQPIPVQELVLEDLQDGDVRMGGSFRGAFSNSEKAKNIFRIRFHDPSPAQSHTLQANDVFHKQQWFNCIRAAIAPFQSAGSPPELQGLPELHEECEGNHPSARKLTAQRRASTVSSVTQVEVDENAYRCGSGMQMAEDSKSLKTHQTQPGIRRARDKALSGGKRKETLV
B4: Vang-like protein 2 (Homo sapiens), Q9ULK5 (parent)
chain: MDTESQYSGYSYKSGHSRSSRKHRDRRDRHRSKSRDGGRGDKSVTIQAPGEPLLDNESTRGDERDDNWGETTTVVTGTSEHSISHDDLTRIAKDMEDSVPLDCSRHLGVAAGATLALLSFLTPLAFLLLPPLLWREELEPCGTACEGLFISVAFKLLILLLGSWALFFRRPKASLPRVFVLRALLMVLVFLLVVSYWLFYGVRILDARERSYQGVVQFAVSLVDALLFVHYLAVVLLELRQLQPQFTLKVVRSTDGASRFYNVGHLSIQRVAVWILEKYYHDFPVYNPALLNLPKSVLAKKVSGFKVYSLGEENSTNNSTGQSRAVIAAAARRRDNSHNEYYYEEAEHERRVRKRRARLVVAVEEAFTHIKRLQEEEQKNPREVMDPREAAQAIFASMARAMQKYLRTTKQQPYHTMESILQHLEFCITHDMTPKAFLERYLAAGPTIQYHKERWLAKQWTLVSEEPVTNGLKDGIVFLLKRQDFSLVVSTKKVPFFKLSEEFVDPKSHKFVMRLQSETSV
B5: Vang-like protein 1 (Homo sapiens), Q8TAA9 (parent)
chain: MDTESTYSGYSYYSSHSKKSHRQGERTRERHKSPRNKDGRGSEKSVTIQPPTGEPLLGNDSTRTEEVQDDNWGETTTAITGTSEHSISQEDIARISKDMEDSVGLDCKRYLGLTVASFLGLLVFLTPIAFILLPPILWRDELEPCGTICEGLFISMAFKLLILLIGTWALFFRKRRADMPRVFVFRALLLVLIFLFVVSYWLFYGVRILDSRDRNYQGIVQYAVSLVDALLFIHYLAIVLLELRQLQPMFTLQVVRSTDGESRFYSLGHLSIQRAALVVLENYYKDFTIYNPNLLTASKFRAAKHMAGLKVYNVDGPSNNATGQSRAMIAAAARRRDSSHNELYYEEAEHERRVKKRKARLVVAVEEAFIHIQRLQAEEQQKAPGEVMDPREAAQAIFPSMARALQKYLRITRQQNYHSMESILQHLAFCITNGMTPKAFLERYLSAGPTLQYDKDRWLSTQWRLVSDEAVTNGLRDGIVFVLKCLDFSLVVNVKKIPFIILSEEFIDPKSHKFVLRLQSETSV
B6: Rho guanine nucleotide exchange factor 16 (Homo sapiens), Q5VV41 (parent)
chain: MAQRHSDSSLEEKLLGHRFHSELRLDAGGNPASGLPMVRGSPRVRDDAAFQPQVPAPPQPRPPGHEEPWPIVLSTESPAALKLGTQQLIPKSLAVASKAKTPARHQSFGAAVLSREAARRDPKLLPAPSFSLDDMDVDKDPGGMLRRNLRNQSYRAAMKGLGKPGGQGDAIQLSPKLQALAEEPSQPHTRSPAKNKKTLGRKRGHKGSFKDDPQLYQEIQERGLNTSQESDDDILDESSSPEGTQKVDATIVVKSYRPAQVTWSQLPEVVELGILDQLSTEERKRQEAMFEILTSEFSYQHSLSILVEEFLQSKELRATVTQMEHHHLFSNILDVLGASQRFFEDLEQRHKAQVLVEDISDILEEHAEKHFHPYIAYCSNEVYQQRTLQKLISSNAAFREALREIERRPACGGLPMLSFLILPMQRVTRLPLLMDTLCLKTQGHSERYKAASRALKAISKLVRQCNEGAHRMERMEQMYTLHTQLDFSKVKSLPLISASRWLLKRGELFLVEETGLFRKIASRPTCYLFLFNDVLVVTKKKSEESYMVQDYAQMNHIQVEKIEPSELPLPGGGNRSSSVPHPFQVTLLRNSEGRQEQLLLSSDSASDRARWIVALTHSERQWQGLSSKGDLPQVEITKAFFAKQADEVTLQQADVVLVLQQEDGWLYGERLRDGETGWFPEDFARFITSRVAVEGNVRRMERLRVETDV

Variants of: B1
Details: with dlg1_human DLG1, Q12959
Target sequence in this assay (Q12959 whole entry, looked up): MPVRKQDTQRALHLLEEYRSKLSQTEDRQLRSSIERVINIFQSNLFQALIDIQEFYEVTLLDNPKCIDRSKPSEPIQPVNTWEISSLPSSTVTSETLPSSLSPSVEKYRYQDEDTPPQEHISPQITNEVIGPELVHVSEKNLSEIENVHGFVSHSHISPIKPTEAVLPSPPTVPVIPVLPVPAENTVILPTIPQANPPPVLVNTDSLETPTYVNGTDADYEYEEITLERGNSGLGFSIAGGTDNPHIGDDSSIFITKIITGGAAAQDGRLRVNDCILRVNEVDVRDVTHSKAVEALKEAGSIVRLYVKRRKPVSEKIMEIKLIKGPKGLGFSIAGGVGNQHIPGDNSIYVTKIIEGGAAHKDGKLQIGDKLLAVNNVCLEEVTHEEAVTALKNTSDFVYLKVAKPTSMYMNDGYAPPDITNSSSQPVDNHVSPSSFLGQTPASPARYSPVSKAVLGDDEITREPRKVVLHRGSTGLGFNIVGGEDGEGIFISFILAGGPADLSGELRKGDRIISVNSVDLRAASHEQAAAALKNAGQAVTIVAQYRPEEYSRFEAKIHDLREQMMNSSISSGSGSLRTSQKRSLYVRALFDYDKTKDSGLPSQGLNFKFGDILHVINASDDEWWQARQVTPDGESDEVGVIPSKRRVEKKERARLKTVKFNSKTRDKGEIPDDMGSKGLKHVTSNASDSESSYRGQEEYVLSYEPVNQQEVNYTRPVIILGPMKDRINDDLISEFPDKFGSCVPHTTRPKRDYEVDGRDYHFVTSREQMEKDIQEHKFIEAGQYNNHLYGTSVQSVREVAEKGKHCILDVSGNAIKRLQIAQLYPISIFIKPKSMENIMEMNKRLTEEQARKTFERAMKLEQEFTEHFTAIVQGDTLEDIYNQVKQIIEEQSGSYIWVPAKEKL

Variant	effect of a mutation on the interaction
S805E	decreasing interaction strength

Variants of: B2
Details: with scrib_human SCRIB
Target sequence in this assay (Q14160 whole entry): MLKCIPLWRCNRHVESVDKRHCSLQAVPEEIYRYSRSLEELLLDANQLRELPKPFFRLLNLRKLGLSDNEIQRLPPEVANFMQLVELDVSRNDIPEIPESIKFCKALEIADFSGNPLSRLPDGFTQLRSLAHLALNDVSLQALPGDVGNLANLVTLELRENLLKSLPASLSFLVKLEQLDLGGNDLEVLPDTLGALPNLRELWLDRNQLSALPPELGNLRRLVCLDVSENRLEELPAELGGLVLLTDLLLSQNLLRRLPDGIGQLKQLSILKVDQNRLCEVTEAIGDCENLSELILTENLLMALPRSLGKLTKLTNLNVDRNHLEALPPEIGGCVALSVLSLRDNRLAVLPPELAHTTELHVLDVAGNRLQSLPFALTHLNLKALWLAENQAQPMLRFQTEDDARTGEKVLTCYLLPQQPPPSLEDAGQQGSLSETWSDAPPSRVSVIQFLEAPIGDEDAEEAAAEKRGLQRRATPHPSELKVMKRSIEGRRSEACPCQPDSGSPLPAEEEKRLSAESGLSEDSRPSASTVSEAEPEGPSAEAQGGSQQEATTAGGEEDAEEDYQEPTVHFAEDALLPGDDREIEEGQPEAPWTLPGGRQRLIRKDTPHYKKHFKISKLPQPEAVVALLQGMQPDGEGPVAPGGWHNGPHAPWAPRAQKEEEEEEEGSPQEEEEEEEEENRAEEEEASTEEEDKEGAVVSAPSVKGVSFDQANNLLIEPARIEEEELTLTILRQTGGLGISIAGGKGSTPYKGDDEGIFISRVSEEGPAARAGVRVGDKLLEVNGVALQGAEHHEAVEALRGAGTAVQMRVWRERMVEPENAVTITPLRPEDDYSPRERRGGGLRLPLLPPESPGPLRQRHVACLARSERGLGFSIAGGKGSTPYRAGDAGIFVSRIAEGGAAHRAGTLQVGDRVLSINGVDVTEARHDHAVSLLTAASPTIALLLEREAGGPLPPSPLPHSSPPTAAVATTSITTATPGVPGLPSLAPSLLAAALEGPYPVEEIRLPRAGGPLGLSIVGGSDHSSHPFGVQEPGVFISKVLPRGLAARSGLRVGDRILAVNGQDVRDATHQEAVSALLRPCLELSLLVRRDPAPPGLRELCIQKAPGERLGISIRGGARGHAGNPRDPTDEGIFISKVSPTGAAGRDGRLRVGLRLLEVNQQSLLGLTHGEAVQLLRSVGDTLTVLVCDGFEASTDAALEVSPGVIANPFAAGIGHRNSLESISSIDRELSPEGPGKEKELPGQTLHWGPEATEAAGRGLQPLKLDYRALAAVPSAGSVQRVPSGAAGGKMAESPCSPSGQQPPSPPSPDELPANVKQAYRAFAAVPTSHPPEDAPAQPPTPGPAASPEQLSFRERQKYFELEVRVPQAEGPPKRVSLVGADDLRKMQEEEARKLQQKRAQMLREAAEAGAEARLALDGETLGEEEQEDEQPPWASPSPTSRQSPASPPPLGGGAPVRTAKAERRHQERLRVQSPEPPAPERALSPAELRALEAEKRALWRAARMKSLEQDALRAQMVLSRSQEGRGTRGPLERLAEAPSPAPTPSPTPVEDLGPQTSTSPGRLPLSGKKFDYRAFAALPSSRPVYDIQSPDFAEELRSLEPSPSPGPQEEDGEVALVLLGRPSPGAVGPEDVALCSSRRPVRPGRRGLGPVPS

Variant	effect of a mutation on the interaction
S358E	causing an interaction

Variants of: B3
Details: with dlg1_human DLG1, Q12959
Target sequence in this assay (Q12959 whole entry, looked up): as the sequence (Q12959 whole entry, looked up) above

Variant	effect of a mutation on the interaction
T594E	disrupting interaction strength

Variants of: B4
Details: with dlg1_human DLG1, Q12959
Target sequence in this assay (Q12959 whole entry, looked up): as above

Variant	effect of a mutation on the interaction
S517E;S520E	with no effect
S520E	increasing interaction strength

Variants of: B5
Details: with dlg1_human DLG1, Q12959
Target sequence in this assay (Q12959 whole entry, looked up): as above

Variant	effect of a mutation on the interaction
S523E	increasing interaction strength

Variants of: B6
Details: with scrib_human SCRIB
Target sequence in this assay (Q14160 whole entry): as the sequence (Q14160 whole entry) above

Variant	effect of a mutation on the interaction
T707E	disrupting interaction strength

Variants of: B6
Details: with dlg1_human DLG1, Q12959
Target sequence in this assay (Q12959 whole entry, looked up): as the sequence (Q12959 whole entry, looked up) above

Variant	effect of a mutation on the interaction
T707E	disrupting interaction strength
